In US20200407750A1:

What was measured:
[1] = target: AAV9.RGNRQ capsid mutant (adeno-associated virus 9 (AAV9), mutant); assay: capsid capture ELISA, as told in the discussion
[2] = target: AAV9.WT capsid (AAV9 vector) (adeno-associated virus 9 (AAV9)); assay: capsid capture ELISA, EC50 from dose-response fit
[3] = target: AAV9.SSNTA capsid mutant (adeno-associated virus 9 (AAV9), mutant); assay: capsid capture ELISA, EC50 from dose-response fit
[4] = target: AAV9.TQAAA capsid mutant (adeno-associated virus 9 (AAV9), mutant); assay: capsid capture ELISA, EC50 from dose-response fit
[5] = target: AAV9.SAQAA capsid mutant (adeno-associated virus 9 (AAV9), mutant); assay: capsid capture ELISA, EC50 from dose-response fit
[6] = target: AAV9.QQNAA capsid mutant (adeno-associated virus 9 (AAV9), mutant); assay: capsid capture ELISA, EC50 from dose-response fit
[7] = target: AAV9.RGNRQ capsid mutant (adeno-associated virus 9 (AAV9), mutant); assay: capsid capture ELISA, EC50 from dose-response fit
[8] = target: AAV9.AAQAA capsid mutant (adeno-associated virus 9 (AAV9), mutant); assay: capsid capture ELISA, EC50 from dose-response fit
[9] = target: AAV9.RGHRE capsid mutant (adeno-associated virus 9 (AAV9), mutant); assay: capsid capture ELISA, EC50 from dose-response fit
[10] = target: AAV9.SAQAN capsid mutant (adeno-associated virus 9 (AAV9), mutant); assay: capsid capture ELISA, EC50 from dose-response fit
[11] = target: AAV9.WT capsid (AAV9 vector) (adeno-associated virus 9 (AAV9)); assay: cell-based or functional assay
[12] = target: AAV9.SSNTA capsid mutant (adeno-associated virus 9 (AAV9), mutant); assay: cell-based or functional assay
[13] = target: AAV9.TQAAA capsid mutant (adeno-associated virus 9 (AAV9), mutant); assay: cell-based or functional assay
[14] = target: AAV9.SAQAA capsid mutant (adeno-associated virus 9 (AAV9), mutant); assay: cell-based or functional assay
[15] = target: AAV9.QQNAA capsid mutant (adeno-associated virus 9 (AAV9), mutant); assay: cell-based or functional assay
[16] = target: AAV9.RGNRQ capsid mutant (adeno-associated virus 9 (AAV9), mutant); assay: cell-based or functional assay
[17] = target: AAV9.AAQAA capsid mutant (adeno-associated virus 9 (AAV9), mutant); assay: cell-based or functional assay
[18] = target: AAV9.RGHRE capsid mutant (adeno-associated virus 9 (AAV9), mutant); assay: cell-based or functional assay
[19] = target: AAV9.SAQAN capsid mutant (adeno-associated virus 9 (AAV9), mutant); assay: cell-based or functional assay

With PAV9.1 monoclonal antibody the fold reduction in binding (relative to WT.AAV9) [1] was 50 fold, the Fold increase EC50 (relative to AAV9.WT) [2] was 1 fold and the Fold increase EC50 (relative to AAV9.WT) [3] was 264 fold. For the same substance, the Fold increase EC50 (relative to AAV9.WT) [4] was 15 fold, the Fold increase EC50 (relative to AAV9.WT) [5] was 20 fold and the Fold increase EC50 (relative to AAV9.WT) [6] was 124 fold. For the same substance, the Fold increase EC50 (relative to AAV9.WT) [7] was 96 fold, the Fold increase EC50 (relative to AAV9.WT) [8] was 45 fold and the Fold increase EC50 (relative to AAV9.WT) [9] was 294 fold. For the same substance, the Fold increase EC50 (relative to AAV9.WT) [10] was 40 fold, the Fold reduction NAb titer [11] was 1 fold and the effective NAb titer (NAb assay, transduction of HEK293 cells) (reciprocal dilution) [11] was 164000. It also gave a Fold reduction NAb titer [12] of 512 fold, a Fold reduction NAb titer [13] of 16 fold and a Fold reduction NAb titer [14] of 4 fold. The Fold reduction NAb titer [15] was 128 fold, the Fold reduction NAb titer [16] was 8 fold and the Fold reduction NAb titer [17] was 16 fold. It also gave a Fold reduction NAb titer [18] greater than 2048 fold, an NAb titer of PAV9.1 (reciprocal dilution) [18] of less than 80 and a Fold reduction NAb titer [19] of 16 fold.
